Measurements: PMC3230689

Key:
FUS (FLAGHA-FUS-His6) [1] = biological target: T1, FUS (FLAGHA-FUS-His6) (human, UniProt P35637 1-526); assay: EMSA
FUS (FLAGHA-FUS-His6) [2] = biological target: T1, FUS (FLAGHA-FUS-His6); assay: EMSA; remark: listed apart in the source

T1 sequence (P35637 whole entry): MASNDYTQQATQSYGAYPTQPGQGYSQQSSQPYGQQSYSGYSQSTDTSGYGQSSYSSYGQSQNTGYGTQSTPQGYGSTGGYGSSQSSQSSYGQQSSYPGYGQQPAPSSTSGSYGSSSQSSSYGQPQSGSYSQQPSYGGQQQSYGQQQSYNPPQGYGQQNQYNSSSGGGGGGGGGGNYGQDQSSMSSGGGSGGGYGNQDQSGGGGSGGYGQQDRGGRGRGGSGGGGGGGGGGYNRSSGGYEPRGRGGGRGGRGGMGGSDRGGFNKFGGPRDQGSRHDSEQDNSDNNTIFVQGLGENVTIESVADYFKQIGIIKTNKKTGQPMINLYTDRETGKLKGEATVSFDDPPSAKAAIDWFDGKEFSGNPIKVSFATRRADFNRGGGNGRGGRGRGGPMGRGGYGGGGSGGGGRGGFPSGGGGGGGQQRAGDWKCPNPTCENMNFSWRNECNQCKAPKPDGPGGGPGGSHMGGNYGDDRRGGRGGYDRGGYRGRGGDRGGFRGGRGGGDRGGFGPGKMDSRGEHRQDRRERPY

Row | Binder | Kd (FUS (FLAGHA-FUS-His6) [1]) [nM] | binding result (FUS (FLAGHA-FUS-His6) [1]) | further results
1 | GAUUUAUCUUUAACUACUCAAGAUACUGAACAUGACA (structured_RNA) [SON_AB (natural left-right stem)] | 148 | – | –
2 | AUUAUUAUUAUUAUUAUUAUUAUUAUUAUUAUUAUU (structured_RNA) [AUU trinucleotide repeat (x12)] | 198 | – | –
3 | GGUGGUGGUGGUGGUGGUGGUGGUGGUGGUGGUGGU (ssRNA) [GGU trinucleotide repeat (x12)] | – | – | binding signal (FUS (FLAGHA-FUS-His6) [2]): > 15 fold lower Kd than SON_AB (at least; as worded in text)
4 | GAUUAAGAUAUAACUACUCAAGAUACUGAACAUGACA (ssRNA) [SON_BB (non-complementary right-right stem)] | – | no binding | –
5 | GAUUAAGAUAUAACUACUCUAUCUUCUGAACAUGACA (structured_RNA) [SON_BA (reconstituted right-left stem)] | – | binds | –
